We go through two proteins from patent US6607880.

For this series, the target named is T1, 35S-labelled transcription-translation product of p28 Bap31 cDNA.
T1 chain: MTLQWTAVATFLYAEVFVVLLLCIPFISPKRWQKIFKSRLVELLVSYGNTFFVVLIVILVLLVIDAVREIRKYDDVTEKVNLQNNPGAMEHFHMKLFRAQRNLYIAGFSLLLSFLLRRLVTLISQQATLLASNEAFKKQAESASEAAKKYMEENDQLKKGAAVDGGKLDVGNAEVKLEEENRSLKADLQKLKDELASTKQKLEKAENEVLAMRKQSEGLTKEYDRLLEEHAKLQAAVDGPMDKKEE

B1: FLICE (caspase-8) (protein)
chain: SESQTLDKVYQMKSKPRGYCLIINNHNFAKAREKVPKLHSIRDRNGTHLDAGALTTTFEELHFEIKPHDDCTVEQIYEILKIYQLMDHSNMDCFICCILSHGDKGIIYGTDGQEAPIYELTSQFTGLKCPSLAGKPKVFFIQACQGDNYQKGIPVETDSEEQPYLEMDLSSPQTRYIPDEADFLLGMATVNNCVSYRNPAEGTWYIQSLCQSLRERCPRGDDILTILTEVNYEVSNKDDKKNMGKQMPQPTFTLRKKLVFPSD
Regarding B1, the “amount of p20 cleavage product (Phosphorimager)” value was “p28 Bap31 was more sensitive to cleavage by FLICE (caspase-8) than ICE (caspase-1)”.

B2: ICE (caspase-1) (protein)
chain: NPAMPTSSGSEGNVKLCSLEEAQRIWKQKSAEIYPIMDKSSRTRLALIICNEEFDSIPRRTGAEVDITGMTMLLQNLGYSVDVKKNLTASDMTTELEAFAHRPEHKTSDSTFLVFMSHGIREGICGKKHSEQVPDILQLNAIFNMLNTKNCPSLKDKPKVIIIQACRGDSPGVVWFKDSVGVSGNLSLPTTEEFEDDAIKKAHIEKDFIAFCSSTPDNVSWRHPTMGSVFIGRLIEHMQEYACSCDVEEIFRKVRFSFEQPDGRAQMPTTERVTLTRCFYLFPGH
For B2, the “cleavage of 35S-labelled p28 Bap31 in vitro (SDS-PAGE)” value was “ICE (caspase-1), on the other hand, generated two products (denoted “a” and “b”) whose apparent sizes in SDS gels (approximately 27 kDA and 20 kDa, respectively)”.
